Measured values from US20250326834A1, “COMBINATION THERAPY OF CLAUDIN 18.2 ANTAGONIST AND PD-1/PD-L1 AXIS INHIBITOR” (SUZHOU TRANSCENTA THERAPEUTICS CO., LTD., priority 2021, published 2025).

System: NCI-H460-CLDN18.2 xenograft tumor
Test: NCI-H460-CLDN18.2 and hPBMC co-inoculation xenograft tumor model
Type: in vivo, NOD-SCID mice
Details: 10 mg/kg each antibody, i.p. twice a week for 5 weeks
From the text: NCI-H460-CLDN18.2 was purchased from Kyinno (Cat #, KC-1450), which was stablely transfected with human CLDN18.2 expression. The tumor cells were routinely sub-cultured twice weekly by trypsin-EDTA treatment (Hyclone). The cells growing in an exponential growth phase were harvested and counted for tumor inoculation. Female SPF grade NOD-SCID mice were inoculated with 3×10^6 NCI-H460-CLDN18.2 cells and 1.5×10^6 human PBMC along with 50% matrigel. Animal were selected and randomized to 4 groups (n=10), approximately 4 hours post inoculation. Animals were then treated with 10 mg/kg Isotype control, 10 mg/kg anti-CLDN18.2 antibody 18B10, 10 mg/kg anti-PD-L1 antibody AM4B6, 10 mg/kg anti-CLDN18.2 antibody 18B10 and 10 mg/kg anti-PD-L1 antibody AM4B6 twice a week for 5 weeks by i.p. injection. Tumor size was measured twice or triple times a week in two dimensions using a caliper (INSIZE) and the volume was expressed in mm^3 using the formula: V=0.5 a×b^2 where a and b are the long and short diameters of the tumor, respectively. Results were analyzed using Prism GraphPad and expressed as mean±S.E.M. Comparisons between two groups were made by T-test, and the difference is considered significant if p is *<0.05 and **<0.01.

B1: AM4B6: anti-PD-L1 antibody; VH SEQ ID NO: 17, VL SEQ ID NO: 18 (antibody, V domains shown)
VH: QVQLVQSGAEVKKPGASVKVSCKASGYVFTDYYMNWVRQAPGQSLEWMGDINPNNAETLYNHKFKGRVTVTVDKSISTAYMELSRLRSDDTAVYYCVKWGDGPFAYWGQGTLVTVSS
VL: DIQMTQSPSSLSASVGDRVTITCKASQNVGAAVAWYQQKPGKAPKLLIYSVSDRYTGVPSRFSGSGSGTDFTLTISSLQPEDIATYYCQQYSNYPTFGQGTKLEIK
effect on tumor growth compared with isotype control: no significant impact on tumor growth | TGI (Day 29): 17.6% | Tumor size (Day 29, mean ± S.E.M.): 557.06 ± 67.47 mm^3
